The record followed here is paper PMC3580015 (Archives of biochemistry and biophysics, 2013).

“And” between values parts separate entries of the source, which are not always exact repeats. Equal values may be shown once.

The data set deals with the molecule itself. Description: native gel or EMSA. (Mobility shift assays separate free from complexed probe on a gel.)

B1: full length human phenylalanine hydroxylase (PAH) (enzyme, UniProt P00439 1-452, looked up)
chain: MSTAVLENPGLGRKLSDFGQETSYIEDNCNQNGAISLIFSLKEEVGALAKVLRLFEENDVNLTHIESRPSRLKKDEYEFFTHLDKRSLPALTNIIKILRHDIGATVHELSRDKKKDTVPWFPRTIQELDRFANQILSYGAELDADHPGFKDPVYRARRKQFADIAYNYRHGQPIPRVEYMEEEKKTWGTVFKTLKSLYKTHACYEYNHIFPLLEKYCGFHEDNIPQLEDVSQFLQTCTGFRLRPVAGLLSSRDFLGGLAFRVFHCTQYIRHGSKPMYTPEPDICHELLGHVPLFSDRSFAQFSQEIGLASLGAPDEYIEKLATIYWFTVEFGLCKQGDSIKAYGAGLLSSFGELQYCLSEKPKLLPLELEKTAIQNYTVTEFQPLYYVAESFNDAKEKVRNFAATIPRPFSVRYDPYTQRIEVLDNTQQLKILADSINSEIGILCSALQKIK
As for B1, the “stoichiometry N” value was 4 and 2.

B2: full length rat phenylalanine hydroxylase (PAH) (enzyme, UniProt P04176 1-453, looked up)
chain: MAAVVLENGVLSRKLSDFGQETSYIEDNSNQNGAISLIFSLKEEVGALAKVLRLFEENDINLTHIESRPSRLNKDEYEFFTYLDKRTKPVLGSIIKSLRNDIGATVHELSRDKEKNTVPWFPRTIQELDRFANQILSYGAELDADHPGFKDPVYRARRKQFADIAYNYRHGQPIPRVEYTEEEKQTWGTVFRTLKALYKTHACYEHNHIFPLLEKYCGFREDNIPQLEDVSQFLQTCTGFRLRPVAGLLSSRDFLGGLAFRVFHCTQYIRHGSKPMYTPEPDICHELLGHVPLFSDRSFAQFSQEIGLASLGAPDEYIEKLATIYWFTVEFGLCKEGDSIKAYGAGLLSSFGELQYCLSDKPKLLPLELEKTACQEYSVTEFQPLYYVAESFSDAKEKVRTFAATIPRPFSVRYDPYTQRVEVLDNTQQLKILADSINSEVGILCNALQKIKS
In the case of B2, the “stoichiometry N” value was 4 and 2.

As usually defined, the stoichiometry N is the number of molecules, sites or subunits per partner or assembly.
